From patent US8209131B2, “Therapeutic heparins and their binding to interleukins 4 and 5 and PECAM-1” (Curtin University of Technology, priority 2004, dated 2012)
Residue numbers refer to the chain shown, from its start. Numbers in names are those of the source.

B1: R85A: IL-4 mutant, baculovirus expressed (protein)
chain: HKCDITLQEIIKTLNSLTEQKTLCTELTVTDIFAASKNTTEKETFCRAATVLRQFYSHHEKDTRCLGATAQQFHRHKQLIRFLKALDRNLWGLAGLNSCPVKEANQSTLENFLERLKTIMREKYSKCSS
B2: E9A: IL-4 mutant, baculovirus expressed (protein)
chain: B1 chain with E9A, A85R
B3: R53A: IL-4 mutant, baculovirus expressed (protein)
chain: B1 chain with R53A, A85R
B4: R81A: IL-4 mutant, baculovirus expressed (protein)
chain: B1 chain with R81A, A85R
B5: K84A: IL-4 mutant, baculovirus expressed (protein)
chain: B1 chain with K84A, A85R
B6: K42A: IL-4 mutant, baculovirus expressed (protein)
chain: B1 chain with K42A, A85R
B7: R75A: IL-4 mutant, baculovirus expressed (protein)
chain: B1 chain with R75A, A85R
B8: K77A: IL-4 mutant, baculovirus expressed (protein)
chain: B1 chain with K77A, A85R
B9: R121A: IL-4 mutant, baculovirus expressed (protein)
chain: B1 chain with A85R, R121A
B10: K77A/R53A: IL-4 double mutant (protein)
chain: B1 chain with R53A, K77A, A85R
B11: K77A/R81A: IL-4 double mutant (protein)
chain: B1 chain with K77A, R81A, A85R
B12: K77A/K84A: IL-4 double mutant (protein)
chain: B1 chain with K77A, K84A, A85R
B13: K12A: IL-4 mutant, baculovirus expressed (protein)
chain: B1 chain with K12A, A85R
B14: E60A: IL-4 mutant, baculovirus expressed (protein)
chain: B1 chain with E60A, A85R
B15: H74A: IL-4 mutant, baculovirus expressed (protein, UniProt P05112 25-153, looked up, variant H74A)
Interleukin-4: B1 chain with H74A, A85R
B16: D87A: IL-4 mutant, baculovirus expressed (protein, UniProt P05112 25-153, looked up, variant D87A)
Interleukin-4: B1 chain with A85R, D87A
B17: K77A/K12A: IL-4 double mutant (protein, UniProt P05112 25-153, looked up, variant K77A K12A)
Interleukin-4: B1 chain with K12A, K77A, A85R
B18: K77A/R85A: IL-4 double mutant (protein, UniProt P05112 25-153, looked up, variant K77A R85A)
Interleukin-4: B1 chain with K77A
B19: K77A/R88V: IL-4 double mutant (protein, UniProt P05112 25-153, looked up, variant K77A R88V)
Interleukin-4: B1 chain with K77A, A85R, R88V
B20: βc: IL-3, IL-5 and GM-CSF common receptor β extracellular domain fused to flag tag (protein, UniProt P32927 17-443, looked up)
extracellular domain: WERSLAGAEETIPLQTLRCYNDYTSHITCRWADTQDAQRLVNVTLIRRVNEDLLEPVSCDLSDDMPWSACPHPRCVPRRCVIPCQSFVVTDVDYFSFQPDRPLGTRLTVTLTQHVQPPEPRDLQISTDQDHFLLTWSVALGSPQSHWLSPGDLEFEVVYKRLQDSWEDAAILLSNTSQATLGPEHLMPSSTYVARVRTRLAPGSRLSGRPSKWSPEVCWDSQPGDEAQPQNLECFFDGAAVLSCSWEVRKEVASSVSFGLFYKPSPDAGEEECSPVLREGLGSLHTRHHCQIPVPDPATHGQYIVSVQPRRAEKHIKSSVNIQMAPPSLNVTKDGDSYSLRWETMKMRYEHIDHTFEIQYRKDTATWKDSKTETLQNAHSMALPALEPSTRYWARVRVRTSRTGYNGIWSEWSEARSWDTESVLPMW
modifications: extracellular domain Flag tag
notes: IL-3, IL-5 and GM-CSF common receptor β extracellular domain fused to flag tag

Test system: TF1.8 cells
Test: TF1.8 bioassay of IL-4 mutants (support of proliferation)
Format: cell-based, human
Conditions: IL-4 wt and mutants, TF1.8 cells
Procedure: TF-1.8 cells have been transfected with the firefly luciferase gene contained in the expression vector, pPGK-puromycin-luciferase (Coombe et al., 1998, Supra). The positive transfectants are cloned to produce a line with good luciferase expression. The proliferation assays are carried out in 96-well microplates suitable for such assays Falcon). The wells are flat bottomed, with white sides and a clear bottom. Cells are washed to remove any cytokine in the growth medium and then resuspended in RPMI/5% w/v FCS. The cells are counted with a Coulter Multisizer (Coulter Electronics, England) and routinely 2.5×10^4 cells are added to microplate wells that contain either no IL-4 (negative control) or various dilutions of IL-4. When the effect of HLGAGs, chondroitin sulfate C, or the heparin fractions of a particular length, or heparin fragments of a particular length and structure is to be measured, the wells also contain various concentrations of these molecules.
The cells proliferate for 48 hours at 37° C. in a humidified atmosphere, after which the luciferase activity is measured by the addition of 50 μl of luciferase substrate buffer (50 mm Tris-HCl, pH 7.8, 15 mM MgSO4, 33.3 mM DTT, 0.1 mM EDTA, 0.5 mM Na-luciferin, 0.5 mM ATP, 0.25 mM lithium Co A and 0.5% v/v Triton X-100). Immediately after the addition of the luciferase buffer the plate is assayed for luciferase activity. Light emissions are detected on a Victor 1420 Multilabel counter (Wallac, Turku, Finland).
IL-4 mutants were compared with WT for their ability to support the proliferation of TF1.8 cells. Titration curves were performed for each of the mutants and the concentration needed to support 50% of cell growth was determined.

Row | Molecule | Conc needed for 50% growth, average [ng/mL]
1 | B1 | 0.71
2 | B2 | 76.1
3 | B3 | 9.39
4 | B4 | 4.85
5 | B5 | 2.95
6 | B6 | 0.67
7 | B7 | 0.63
8 | B8 | 1.55
9 | B9 | 1.01
10 | B10 | 11.3
11 | B11 | 1.65
12 | B12 | 1.69
13 | B13 | 0.6

Same assay, conditions: compared with WT

Row | Molecule | proliferative activity of IL-4 mutants
14 | B2 | markedly decreased proliferative activity
15 | B3 | slightly decreased proliferative activity
16 | B4 | slightly decreased proliferative activity
17 | B5 | slightly decreased proliferative activity

Test system: not listed separately
Test: BIAcore binding of proteins to heparin immobilised on a biosensor chip
Conditions: not given
Text: This technology uses the optical phenomenon of surface plasmon resonance to monitor physical interactions between molecules. Passing the protein solution over a sensor surface to which the ligand is coupled monitors the real-time binding of proteins to an immobilized ligand. Detection is achieved by measuring refractive index changes very close to the sensor surface. When the refractive index is altered, the angle at which plasmon resonance occurs changes and this change directly correlates with the amount of protein interacting with the surface. A BIAcore 2000 is conveniently used. It is very sensitive and its microfluidics ensures that only small amounts of material are required.
The HLGAGs are immobilized on the biosensor chip. Intact HLGAGs are biotinylated via amino groups, or reducing termini modified with ammonia by reductive amination, using sulfo-NHS-biotin. Biotinylated HLGAGs are immobilized on streptavidin-coupled sensor chips. Solutions containing proteins of interest are injected over the sensor chip surface, and the binding is measured in real time (Fernig, In: Proteoglycan protocols, Ed. R.V. Iozzo, Humana Press, Totowa, N.J., USA, 2001). […] In all cases binding is specific, as there is little or no interaction with sensor chips lacking heparin with any of the targeted proteins, and binding is inhibited by exogenous heparin. Initial analyzes indicate that the binding of rhIL-5 to heparin has affinity constants of the order from 50-5×10^−9. Because unsubstituted amines are variably present in heparan sulfates from different tissues, an alternative method of biotin labeling is recommended for the heparan sulfate chip. In this case, heparan sulfate is labeled via oxidized cis-diol residues using biotinyl-LC-hydrazine. […]
Binding experiments with these proteins has indicated to which PECAM-1 domains heparin binds. Two binding assays were used: the assay where PECAM-1 is reacted with a BIAcore biosensor chip to which heparin has been immobilised and the second assay is the binding of PECAM-1 to heparan sulfate on the cell surface.
Site directed mutagenesis was performed on IL-4. Basic residues within the proposed heparin binding site were changed to alanine and the proteins expressed using the baculovirus expression system. The one exception was R88 which was changed to valine. Insect cell expressed proteins were purified on an anti-IL-4 affinity column and checked for purity by SDS-PAGE and silver staining. Mutant IL-4 proteins were examined for their ability to bind heparin immobilised on a biosensor chip and binding assessed using a BIAcore 2000.

Row | Molecule | heparin binding of IL-4 mutant relative to wild type
18 | B1 | stronger binding than the wild type

Same assay, conditions: IL-4 WT and mutants binding to heparin; in M-1s-1 (unit assumed)

Row | Molecule | ka
19 | B1 | 1.04E+05
20 | B2 | 1.72E+05
21 | B3 | 5.83E+04
22 | B4 | 2.43E+04
23 | B5 | 3.06E+04
24 | B6 | 4.63E+04
25 | B14 | 8.44E+04
26 | B15 | 2.05E+04
27 | B7 | 3.32E+04
28 | B8 | 6.42E+03
29 | B16 | 4.42E+04
30 | B9 | 5.13E+04
31 | B17 | 1.65E+04
32 | B10 | 1.79E+04
33 | B11 | 9.82E+03
34 | B12 | 1.26E+04
35 | B18 | 1.51E+04
36 | B19 | 1.36E+04
37 | B13 | 5.03E+04

Same assay, conditions: IL-4 WT and mutants binding to heparin; in s-1 (unit assumed)

Row | Molecule | kd
38 | B1 | 2.42E−03
39 | B2 | 8.45E−03
40 | B3 | 5.40E−03
41 | B4 | 2.37E−03
42 | B5 | 2.57E−03
43 | B6 | 2.50E−03
44 | B14 | 2.76E−03
45 | B15 | 6.37E−04
46 | B7 | 3.63E−03
47 | B8 | 2.24E−03
48 | B16 | 1.59E−03
49 | B9 | 2.13E−03
50 | B17 | 3.44E−03
51 | B10 | 3.08E−03
52 | B11 | 1.55E−03
53 | B12 | 2.23E−03
54 | B18 | 1.78E−03
55 | B19 | 1.94E−03
56 | B13 | 3.95E−03

Same assay, conditions: IL-4 WT and mutants binding to heparin; read-out: KD

Row | Molecule | Kd [nM]
57 | B1 | 23.4
58 | B2 | 49.3
59 | B3 | 92.5
60 | B4 | 97.8
61 | B5 | 83.9
62 | B6 | 53.9
63 | B14 | 32.7
64 | B15 | 31.1
65 | B7 | 109
66 | B8 | 349
67 | B16 | 36
68 | B9 | 41.5
69 | B17 | 209
70 | B10 | 172
71 | B11 | 158
72 | B12 | 176
73 | B18 | 117
74 | B19 | 142
75 | B13 | 78.5

Same assay, conditions: recombinant proteins, FIG. 2

Row | Molecule | binding to immobilized heparin
76 | B20 | binds to heparin
